# Laboratory results published in IntAct's records for PubMed 20385816.
# Molecular target: slac1_arath SLAC1 (UniProt Q9LD83)
# Sequence (Q9LD83 whole entry): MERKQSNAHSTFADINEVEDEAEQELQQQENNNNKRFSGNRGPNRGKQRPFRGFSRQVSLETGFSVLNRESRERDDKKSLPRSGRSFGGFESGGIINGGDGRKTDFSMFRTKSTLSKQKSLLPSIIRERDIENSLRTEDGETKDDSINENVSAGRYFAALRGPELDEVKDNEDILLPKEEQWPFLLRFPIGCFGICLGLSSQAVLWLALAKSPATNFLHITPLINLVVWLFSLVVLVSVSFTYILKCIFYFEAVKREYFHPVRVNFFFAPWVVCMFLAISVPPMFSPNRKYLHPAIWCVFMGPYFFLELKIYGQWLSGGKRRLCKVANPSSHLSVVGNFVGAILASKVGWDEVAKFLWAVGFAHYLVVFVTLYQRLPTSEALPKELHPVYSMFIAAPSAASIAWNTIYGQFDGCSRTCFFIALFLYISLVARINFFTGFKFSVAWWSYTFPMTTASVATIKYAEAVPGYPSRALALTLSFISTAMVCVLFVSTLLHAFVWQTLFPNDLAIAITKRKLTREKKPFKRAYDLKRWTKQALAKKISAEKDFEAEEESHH
# Calcium-dependent protein kinase 23 (Arabidopsis thaliana (Mouse-ear cress)), Q9M101 D193A, sequence (Q9M101 whole entry D193A): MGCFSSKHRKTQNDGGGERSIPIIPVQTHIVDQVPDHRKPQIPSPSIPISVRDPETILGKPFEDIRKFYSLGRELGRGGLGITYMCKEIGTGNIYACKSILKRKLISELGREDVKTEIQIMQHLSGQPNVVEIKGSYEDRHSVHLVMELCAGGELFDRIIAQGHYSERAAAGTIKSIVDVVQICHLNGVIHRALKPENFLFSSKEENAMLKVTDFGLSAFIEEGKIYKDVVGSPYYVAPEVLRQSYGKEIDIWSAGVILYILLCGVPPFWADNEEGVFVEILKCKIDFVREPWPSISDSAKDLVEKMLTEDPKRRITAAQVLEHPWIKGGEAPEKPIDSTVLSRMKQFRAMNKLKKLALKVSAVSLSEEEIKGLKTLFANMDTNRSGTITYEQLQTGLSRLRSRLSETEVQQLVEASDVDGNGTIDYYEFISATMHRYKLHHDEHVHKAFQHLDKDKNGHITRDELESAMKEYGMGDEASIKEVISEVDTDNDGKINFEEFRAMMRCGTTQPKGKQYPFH
substance,measurement,value
"Calcium-dependent protein kinase 23 (Arabidopsis thaliana (Mouse-ear cress)), Q9M101 D193A",effect of a mutation on the interaction,disrupting interaction
